# Assay results: publication PMC6108936 (Cell, 2018)
# Target: the molecule itself
# Test: cryo-EM structure
protein,measurement,value
"Cps25 (natural protein, Saccharomyces cerevisiae, UniProt Q03323 1-175, looked up) MNESENSPQHNEVTVPMVEDTSSNADIPMEQIQREDNKNYDKHDNECFDMNGNHNNNSDNLQFDSVPSSATKDLKNIKSVTNQNVKIEESSSTNSVIEESSEPKISKLENVNLAATVGGSQTRKYLNTNVTPHLLAGMRLIAVQQPEDPLRVLGEYLIEQSNILKSGEKESNASK",binding result,binds
